Assay results taken from patent publication US12012446B2, “Epstein-Barr virus antibodies and uses thereof” (priority 2017, dated 2024).

B1: m72A1: EBV anti-gp350 neutralizing mouse antibody purified from HB168 hybridoma (ATCC); SEQ ID NO: 100 / 101 (antibody, V domains shown)
VH: PELVKPGTSMKISCKASGSSFTDYTMNWMKQSHGKNLEWIGLINPYNGGTRYNQKFKGKATLTLDKSSSTAYMEVLSLTSEDSAVYYCAGGLRRVNWFAYWGQGTLVSVSAAKTTPPSVYPLAPGSAAQTNSMVTLG
VL: QAVLTQESALTTSPGETVTLTCRSSTGAVTTSNYANWVQEKPDHLFTGLIGGTNNRVPGVPARFSGSLIGDKAALTITGAQTEDEAIYFCVLWHSNHWVFGGGTKLTVL
modifications: heavy chain mAb 72A1; light chain mAb 72A1
B2: HB5: murine anti-EBV gp350 mAb, IgG2a κ; SEQ ID NO: 108 / 109; neutralizing (antibody, V domains shown)
VH: AELVRPGASVKISCKAFGYTFTNHNINWVKQRPGQGLDWIGYINPYNDYTSYNQKFKGKATLTVDKSSNTAYMELSSLTSEDSAVYYCARSEGWLRRGAWFAYWGQGTLVTVSAAKTTAPSVYPLAPVCGDTTGSSVTLG
VL: AILSVSPGERVSFSCRASQSIGTSIHWYQQRTNDSPRLLIKYASESISGIPPRFSGSGSGTDFTLSINSVESEDIADYHCQQSNSWPMLTFGAGTKLELKRADAAPTV
modifications: heavy chain mAb HB5; light chain mAb HB5
notes: murine anti-EBV gp350 mAb, IgG2a κ; neutralizing
B3: HB11: murine anti-EBV gp350 mAb, IgG1 κ; SEQ ID NO: 120 / 121; neutralizing (antibody, V domains shown)
VH: PSLVKPSQTLSLTCSVTGDSITSGFWNWIRKFPGNKLEYMGYISYSGSTYYNPSLKSRISITRDTSKNQYYLQLNSVTTEDTATYYCARGNGGNYDWYFDVWGAGTTVTVSSAKTTPPSVYPLAPGSAAQTNSMVTLG
VL: AIMSASLGEKVTMSCRASSSVNFMNWYQQKSDDSPKLLIYYISNLAPGVPARFSGSGSGNSYSLTISGMEGEDAATYYCQQFTSSPSWTFGGGTKLEIKRADAAPTV
modifications: heavy chain mAb HB11; light chain mAb HB11
notes: murine anti-EBV gp350 mAb, IgG1 κ; neutralizing
B4: h72A1: humanized 72A1 IgG1; heavy and light chain SEQ ID NOs: 180 and 181 (antibody, V domains shown)
VH: EVQLVESGGGLVQPGGSLRLSCAASGSSFTDYTMNWMRQSPGKGLEWIGLINPYNGGTRYADSVKGRATLSLDKSKNTAYLQMNSLRAEDTAIYYCAGGLRRVNWFAYWGQGTLVTVSS
VL: DAQLTQSPILLSASVGDRVTITCRSSTGAVTTSNYANWVQERTNGSFRGLIGGTNNRVPGVPSRFSGSLSGDDATLTISSLQPEDEADYFCVLWHSNHWVFGAGTKVEIKR

Tests used:
[1] = system: EBV-eGFP infection of Raji cells; assay: EBV neutralization assay in Raji cells; type: cell-based, Epstein-Barr virus; details: for blocking of EBV infection of Raji cells (nAb activity) / blocking of EBV infection of Raji cells (in words): protein G and size-exclusion chromatography-purified mAbs; for blocking of EBV infection of Raji cells (nAb activity): lowest concentration 12.5 μg/ml; for neutralization of EBV in Raji cells (in words): spin-column purified mAbs, 12.5, 25, 50 and 100 μg/ml; for neutralization of EBV in Raji cells: spin-column purified mAbs; for neutralization of EBV in Raji cells / blocking of EBV infection of Raji cells (in words): 12.5-100 μg/ml
Procedure: EBV neutralization assay was performed in Raji cells as previously described (47). Briefly, purified individual anti-gp350 mAbs were incubated with purified AGS-EBV-eGFP (titer calculated to infect at least 8% of HEK293 cells seeded in 100 μl of serum-free DMEM) for 2 hours at 37° C. To represent EBV infection of B cells, the pre-incubated anti-gp350 mAbs/AGS-EBV-eGFP were used to infect 5×10^5 Raji cells seeded in a 96-well plate for 2 hours at 37° C. Neutralizing 72A1 and non-neutralizing 2L10 anti-gp350 mAbs served as positive and negative controls, respectively. Infected cells were washed three times with PBS to remove any unbound viruses and antibodies. Washed, infected cells were incubated in 96-well plates at 37° C. for 48 hours post-infection and the number of eGFP+ (infected) cells was determined using flow cytometry. All dilutions were performed in quintuplicate and the assays were repeated three times. Antibody EBV neutralization activity was calculated as: % neutralization=(EBValone−EBVmAb)/(EBValone)×100.
However, this antibody was recently reported to be a mixture of both functional and non-functional antibodies (50). […] The percentage of eGFP+ cells (percent infection) was determined using flow cytometry as described (47). The nAbs 72A1 and E1D1 were used as positive controls, whereas the anti-gp350 non-neutralizing mAb 2L10 and KSHV gH/gL mAb 54A1 were used as negative controls. Because HB4, HB13, HB15, HB16, HB19, HB21, and HB23 were confirmed to be polyclonal based on isotyping and/or sequence data, they were eliminated from further consideration in the neutralization assay. HB18 was not used in neutralization experiments because it was identical to HB8.
The purified eGFP-tagged-EBV was titered in Raji cells to determine percent EBV infection using a range of volumes (50-250 μl) (FIG. 5A). Then initial neutralization of EBV was conducted in Raji cells using purified mAbs at various concentrations (12.5, 25, 50, and 100 μg/ml).
EBV-eGFP+ cells were enumerated using flow cytometry.

[2] = molecular target: T1, EBV gp350 stably expressed on CHO cells (Epstein-Barr virus, UniProt P03200); assay: Epitope mapping by competitive cell binding assay with biotinylated mAbs; details: for % inhibition of biotinylated 54A1: 1 μg/ml biotinylated 54A1, 500 μg/ml unlabeled mAb; for % inhibition of biotinylated HB1: 1 μg/ml biotinylated HB1, 500 μg/ml unlabeled mAb; for % inhibition of biotinylated HB5: 1 μg/ml biotinylated HB5, 500 μg/ml unlabeled mAb; for % inhibition of biotinylated HB11: 1 μg/ml biotinylated HB11, 500 μg/ml unlabeled mAb; for % inhibition of biotinylated HB17: 1 μg/ml biotinylated HB17, 500 μg/ml unlabeled mAb; for % inhibition of biotinylated HB20: 1 μg/ml biotinylated HB20, 500 μg/ml unlabeled mAb; for % inhibition of biotinylated h72A1: 1 μg/ml biotinylated h72A1, 500 μg/ml unlabeled mAb; for % inhibition of biotinylated m72A1: cross-competition, 1 μg/ml biotinylated m72A1, 500 μg/ml unlabeled mAb; for % inhibition of biotinylated nAbs (biotinylated m72A1) / antigen binding competition with biotinylated m72A1 (in words): biotinylated m72A1 1 μg/ml; for competitive binding versus m72A1 and h72A1 (in words): biotinylated antibodies; for antigen binding competition with biotinylated m72A1 (in words): unlabeled mAbs 500-67.5 μg/ml
T1 construct: stably co-transfected with full-length pCAGGS-gp350/220 and pCI-puro vector; expressed in transfected cells; host or cells: CHO cells
T1 sequence (P03200 whole entry): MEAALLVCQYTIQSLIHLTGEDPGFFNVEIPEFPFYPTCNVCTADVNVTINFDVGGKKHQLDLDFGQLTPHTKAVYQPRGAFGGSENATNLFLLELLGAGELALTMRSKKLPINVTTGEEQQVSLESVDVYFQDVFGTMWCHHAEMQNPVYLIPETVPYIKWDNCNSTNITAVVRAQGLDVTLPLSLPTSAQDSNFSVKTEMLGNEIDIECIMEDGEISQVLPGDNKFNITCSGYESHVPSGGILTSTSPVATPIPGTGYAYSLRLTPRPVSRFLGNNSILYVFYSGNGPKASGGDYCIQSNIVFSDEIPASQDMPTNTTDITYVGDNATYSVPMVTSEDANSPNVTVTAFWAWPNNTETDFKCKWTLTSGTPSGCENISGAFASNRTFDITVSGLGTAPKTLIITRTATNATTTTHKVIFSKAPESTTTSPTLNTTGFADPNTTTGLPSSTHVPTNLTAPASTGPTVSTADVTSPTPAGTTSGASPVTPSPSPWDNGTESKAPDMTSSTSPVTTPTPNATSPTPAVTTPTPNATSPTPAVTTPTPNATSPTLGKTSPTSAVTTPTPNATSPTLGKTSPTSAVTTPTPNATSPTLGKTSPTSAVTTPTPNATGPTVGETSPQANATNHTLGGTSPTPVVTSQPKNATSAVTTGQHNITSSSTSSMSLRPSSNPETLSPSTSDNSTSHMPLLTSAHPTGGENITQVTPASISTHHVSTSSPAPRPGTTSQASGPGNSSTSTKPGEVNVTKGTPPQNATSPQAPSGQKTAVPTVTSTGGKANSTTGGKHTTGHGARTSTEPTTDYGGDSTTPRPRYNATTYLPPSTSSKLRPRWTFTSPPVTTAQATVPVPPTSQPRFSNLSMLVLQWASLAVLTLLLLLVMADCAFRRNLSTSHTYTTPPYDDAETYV
Procedure: To evaluate conformation epitope mapping of the selected mAbs, competitive binding assays were conducted using biotinylated mAbs. A one-step antibody biotinylation kit (MACS Miltenyi Biotec) was used to biotinylate the mAbs. Approximately 1×10^5 CHO cells that stably expressed EBV gp350 were incubated for 2 hours with serially diluted ([…]) unlabeled competitor mAbs and non-specific anti-KSHV gH/gL 54A1 mAb. After being washed with PBS, the cells were incubated for 2 hours in the presence of 1 μg/ml biotinylated mAbs. To determine maximum binding, cells in which the biotinylated mAb was added in the absence of unlabeled mAbs were included in the assay. Cells were washed with PBS, followed by incubation for 1 hour with anti-biotin AF488 at a dilution of 1:500. After the final wash in PBS, cells were resuspended in 1% paraformaldehyde and analyzed by flow cytometry as described above. Percentage of inhibition was calculated as: 100−[(% fluorescent cells with competitor mAb/% fluorescent cells without competitor mAb)×100]. The complete prevention of binding of a biotinylated mAb by its unlabeled counterpart was used as a validation of the assay, as previously described (84).
At least seven unique CD21 binding epitopes on EBV gp350 have been predicted (Table 3).

[3] = molecular target: T2, purified EBV gp350/220 (recombinant EBV gp350 ectodomain) (Epstein-Barr virus, UniProt P03200); assay: Indirect ELISA on recombinant EBV gp350 ectodomain; type: binding
T2 construct: purified EBV gp350 ectodomain protein (AA 4-863); purchased Immune Technology Corporation
T2 sequence (P03200 4-863): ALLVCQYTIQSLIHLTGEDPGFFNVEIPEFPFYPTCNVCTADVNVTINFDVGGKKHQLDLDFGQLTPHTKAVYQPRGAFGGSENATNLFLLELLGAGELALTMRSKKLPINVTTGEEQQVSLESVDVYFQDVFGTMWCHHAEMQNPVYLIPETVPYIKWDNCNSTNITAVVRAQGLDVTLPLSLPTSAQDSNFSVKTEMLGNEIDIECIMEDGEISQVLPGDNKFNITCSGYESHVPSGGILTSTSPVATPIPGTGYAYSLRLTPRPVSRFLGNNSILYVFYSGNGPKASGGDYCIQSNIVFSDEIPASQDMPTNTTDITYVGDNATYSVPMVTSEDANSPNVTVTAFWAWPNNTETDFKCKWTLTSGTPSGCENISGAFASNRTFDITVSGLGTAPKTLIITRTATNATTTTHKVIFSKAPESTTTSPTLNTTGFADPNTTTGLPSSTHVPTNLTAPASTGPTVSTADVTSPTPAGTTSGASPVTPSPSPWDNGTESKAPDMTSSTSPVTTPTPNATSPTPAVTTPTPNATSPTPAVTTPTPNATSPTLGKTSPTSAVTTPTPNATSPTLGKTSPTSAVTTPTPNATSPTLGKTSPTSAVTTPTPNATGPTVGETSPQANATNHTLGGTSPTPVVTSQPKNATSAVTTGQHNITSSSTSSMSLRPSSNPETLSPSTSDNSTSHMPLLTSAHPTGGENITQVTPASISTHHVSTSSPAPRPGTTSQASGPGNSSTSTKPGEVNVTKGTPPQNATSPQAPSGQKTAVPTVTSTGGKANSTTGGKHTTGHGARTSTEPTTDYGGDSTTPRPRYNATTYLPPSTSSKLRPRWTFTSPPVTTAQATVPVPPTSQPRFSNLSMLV
Procedure: Briefly, immunoplates (Costar 3590; Corning Incorporated) were coated with 50 μl of 0.5 μg/ml recombinant EBV gp350 ectodomain (Immune Technology Corporation) diluted in 1× phosphate buffered saline (PBS, pH 7.4) and incubated overnight at 4° C. After washing three times with 1×PBS containing 0.05% (v/v) Tween 20 (washing buffer), plates were blocked with 100 μl washing buffer containing 2% (w/v) bovine serum albumin (BSA) (blocking buffer) then incubated for 1 h at room temperature and washed as above. 100 μl of hybridoma supernatant or 50 μl of 10 μg/ml purified mAbs was added to each well (in triplicate) and incubated for 2 h at room temperature. […] The plates were washed as described above, followed by incubation with 50 μl of goat anti-mouse IgG HRP-conjugated secondary antibody (1:2,000 diluted in 1×PBS) at room temperature for 1 h. The plates were washed again and 100 μl of chromogenic substrate 2,2′-azino-bis (3-ethylbenzothiazoline-6-sulphonic acid) (ABTS, Life Science Technologies) was added. The reaction was stopped using 100 μl of ABTS peroxidase stop solution containing 5% sodium dodecyl sulfate (SDS) in water. The absorbance was read at an optical density of 405 nm using an ELISA reader (Molecular Devices). All experiments were performed in triplicate and confirmed in three independent experiments.
ELISA binding of anti-gp350 and anti-gH/gL to soluble gp350 and gH/gL proteins was performed. Soluble EBV gp350 and gH/gL proteins were used as the target antigen at 0.5 μg/ml. 1× phosphate buffered saline (PBS) was used as negative (not shown) control. Bound antibodies were detected using HRP-conjugated anti-mouse or anti-human IgG (1:2,000).

Molecule	blocking of EBV infection of Raji cells (nAb activity) [1] [%]	neutralization of EBV in Raji cells (in words) [1]	neutralization of EBV in Raji cells [1]	% inhibition of biotinylated 54A1 [2] [%]	% inhibition of biotinylated HB1 [2] [%]	% inhibition of biotinylated HB5 [2] [%]	% inhibition of biotinylated HB11 [2] [%]	% inhibition of biotinylated HB17 [2] [%]	% inhibition of biotinylated HB20 [2] [%]	% inhibition of biotinylated h72A1 [2] [%]	% inhibition of biotinylated m72A1 [2] [%]	% inhibition of biotinylated nAbs (biotinylated m72A1) ([2]; unlabeled mAb 67.5 μg/ml) [%]	% inhibition of biotinylated nAbs (biotinylated m72A1) ([2]; unlabeled mAb 125 μg/ml) [%]	% inhibition of biotinylated nAbs (biotinylated m72A1) ([2]; unlabeled mAb 250 μg/ml) [%]	% inhibition of biotinylated nAbs (biotinylated m72A1) ([2]; unlabeled mAb 500 μg/ml) [%]	ELISA binding to purified EBV gp350/220 ([3]; purified antibodies 10 μg/ml)	blocking of EBV infection of Raji cells (in words) [1]	competitive binding versus m72A1 and h72A1 (in words) [2]	antigen binding competition with biotinylated m72A1 (in words) [2]	further results
B1	93	dose-dependent neutralization	35-80%	1	82	97	90	37	31	98	98	97	94	93	91	+	–	–	–	ELISA signal relative to negative control 54A1 ([3]; purified antibodies 10 μg/ml): greater than two times those of anti-KSHV gH/gL mAb 54A1
B2	90	dose-dependent neutralization	60-80%	–	–	–	–	–	–	–	–	–	–	–	–	+	blocked EBV infection in a dose-dependent manner	bound targets that overlapped with those of both m72A1 and h72A1	Antigen binding competition was observed	EBV neutralization, summary statement ([1]; as stated in Example 8): non-neutralizing; ELISA binding strength to gp350, compared with m72A1 / parental antibody ([3]; soluble gp350 0.5 μg/ml): equal to or greater than that of the positive control, m72A1
B3	–	dose-dependent neutralization	–	–	–	–	–	–	–	–	–	–	–	–	–	+	blocked EBV infection in a dose-dependent manner	bound targets that overlapped with those of both m72A1 and h72A1	Antigen binding competition was observed	–
B4	98	–	–	0	87	97	79	31	26	98	98	89	93	95	98	–	–	–	Antigen binding competition was observed	–
